# Test results taken from PMC7736794.
# B1: Flag-USP36 wild type [not stated] / Myc-PrimPol WT [not stated] (parent)
# chain 1: MPIVDKLKEALKPGRKDSADDGELGKLLASSAKKVLLQKIEFEPASKSFSYQLEALKSKYVLLNPKTEGASRHKSGDDPPARRQGSEHTYESCGDGVPAPQKVLFPTERLSLRWERVFRVGAGLHNLGNTCFLNATIQCLTYTPPLANYLLSKEHARSCHQGSFCMLCVMQNHIVQAFANSGNAIKPVSFIRDLKKIARHFRFGNQEDAHEFLRYTIDAMQKACLNGCAKLDRQTQATTLVHQIFGGYLRSRVKCSVCKSVSDTYDPYLDVALEIRQAANIVRALELFVKADVLSGENAYMCAKCKKKVPASKRFTIHRTSNVLTLSLKRFANFSGGKITKDVGYPEFLNIRPYMSQNNGDPVMYGLYAVLVHSGYSCHAGHYYCYVKASNGQWYQMNDSLVHSSNVKVVLNQQAYVLFYLRIPGSKKSPEGLISRTGSSSLPGRPSVIPDHSKKNIGNGIISSPLTGKRQDSGTMKKPHTTEEIGVPISRNGSTLGLKSQNGCIPPKLPSGSPSPKLSQTPTHMPTILDDPGKKVKKPAPPQHFSPRTAQGLPGTSNSNSSRSGSQRQGSWDSRDVVLSTSPKLLATATANGHGLKGNDESAGLDRRGSSSSSPEHSASSDSTKAPQTPRSGAAHLCDSQETNCSTAGHSKTPPSGADSKTVKLKSPVLSNTTTEPASTMSPPPAKKLALSAKKASTLWRATGNDLRPPPPSPSSDLTHPMKTSHPVVASTWPVHRARAVSPAPQSSSRLQPPFSPHPTLLSSTPKPPGTSEPRSCSSISTALPQVNEDLVSLPHQLPEASEPPQSPSEKRKKTFVGEPQRLGSETRLPQHIREATAAPHGKRKRKKKKRPEDTAASALQEGQTQRQPGSPMYRREGQAQLPAVRRQEDGTQPQVNGQQVGCVTDGHHASSRKRRRKGAEGLGEEGGLHQDPLRHSCSPMGDGDPEAMEESPRKKKKKKRKQETQRAVEEDGHLKCPRSAKPQDAVVPESSSCAPSANGWCPGDRMGLSQAPPVSWNGERESDVVQELLKYSSDKAYGRKVLTWDGKMSAVSQDAIEDSRQARTETVVDDWDEEFDRGKEKKIKKFKREKRRNFNAFQKLQTRRNFWSVTHPAKAASLSYRR
# chain 2: MNRKWEAKLKQIEERASHYERKPLSSVYRPRLSKPEEPPSIWRLFHRQAQAFNFVKSCKEDVHVFALECKVGDGQRIYLVTTYAEFWFYYKSRKNLLHCYEVIPENAVCKLYFDLEFNKPANPGADGKKMVALLIEYVCKALQELYGVNCSAEDVLNLDSSTDEKFSRHLIFQLHDVAFKDNIHVGNFLRKILQPALDLLGSEDDDSAPETTGHGFPHFSEAPARQGFSFNKMFTEKATEESWTSNSKKLERLGSAEQSSPDLSFLVVKNNMGEKHLFVDLGVYTRNRNFRLYKSSKIGKRVALEVTEDNKFFPIQSKDVSDEYQYFLSSLVSNVRFSDTLRILTCEPSQNKQKGVGYFNSIGTSVETIEGFQCSPYPEVDHFVLSLVNKDGIKGGIRRWNYFFPEELLVYDICKYRWCENIGRAHKSNNIMILVDLKNEVWYQKCHDPVCKAENFKSDCFPLPAEVCLLFLFKEEEEFTTDEADETRSNETQNPHKPSPSRLSTGASADAVWDNGIDDAYFLEATEDAELAEAAENSLLSYNSEVDEIPDELIIEVLQE
# Variants of: B1
# Test: co-immunoprecipitation (anti-Flag agarose beads), immunoblot band quantification
# Conditions: with Myc-PrimPol WT; USP36 stably knocked-down HEK293T cells; HU (10 mM) for 8 h; parent: 1.6; read off a plot; scale: relative band intensity
row,Variant,response
1,chain 1 K329R K338R,1.6

# Same assay, conditions: with Myc-PrimPol WT; USP36 stably knocked-down HEK293T cells; untreated (Ctrl); parent: 1; read off a plot; scale: relative band intensity
row,Variant,response
1,chain 1 K329R K338R,1.6
